In paper PMC3918160, “Biochemical studies of the multicopper oxidase (small laccase) from Streptomyces coelicolor using bioactive phytochemicals and site-directed mutagenesis” (Microbial Biotechnology, 2013) one finds Km and kcat data, which are given here for two proteins.

By Km is commonly meant the concentration of substrate that gives half-maximal velocity. Usually kcat stands for the maximal rate divided by the concentration of active sites.

Substrate in series [1]: CCn1c(=NN=c2sc3cc(S(=O)(=O)O)ccc3n2CC)sc2cc(S(=O)(=O)O)ccc21
Nature of the series: initial rates, absorbance, Michaelis-Menten fit. The class given is biochemical, Streptomyces coelicolor. The note with it: 60°C, optimal pH for the substrate.

Substrate in series [2]: O=c1c(O)c(-c2ccc(O)cc2O)oc2cc(O)cc(O)c12
In words: initial rates, absorbance, Michaelis-Menten fit. Type of series: biochemical, Streptomyces coelicolor. The note with it: 60°C, optimal pH for the substrate.

Substrate in series [3]: O=c1c(O)c(-c2ccc(O)c(O)c2)oc2cc(O)cc(O)c12
In words: initial rates, absorbance, Michaelis-Menten fit. Type of series: biochemical, Streptomyces coelicolor. The following applies: 60°C, optimal pH for the substrate, 5% (v/v) DMSO.

Substrate in series [4]: COc1cccc(OC)c1O
Nature of the series: initial rates, absorbance, Michaelis-Menten fit. Type of series: biochemical, Streptomyces coelicolor. The note with it: 60°C, optimal pH for the substrate.

Substrate in the series “purified protein”: O=c1c(O)c(-c2cc(O)c(O)c(O)c2)oc2cc(O)cc(O)c12
In words: purified protein. The following applies: 60°C, optimal pH for the substrate, 5% (v/v) DMSO.

Substitutions are numbered along the chain they refer to. Names may count otherwise.

B1: small laccase (SLAC), SCO6712 (Streptomyces coelicolor A3(2)) (protein)
chain: AKGITARTAPAGGEVRHLKMYAEKLADGQMGYGFEKGKASVPGPLIEVNEGDTLHIEFTNTMDVRASLHVHGLDYEISSDGTAMNKSDVEPGGTRTYTWRTHKPGRRDDGTWRPGSAGYWHYHDHVVGTEHGTGGIRNGLYGPVIVRRKGDVLPDATHTIVFNDMTINNRKPHTGPDFEATVGDRVEIVMITHGEYYHTFHMHGHRWADNRTGILTGPDDPSRVIDNKITGPADSFGFQIIAGEGVGAGAWMYHCHVQSHSDMGMVGLFLVKKPDGTIPGYEPHEHGGATAKSGESGEPTGGAAAHEHEH
With B1, the Km came to 800 ± 100 µM in series [1] (universal buffer); 1500 ± 200 µM in series [2] (5% (v/v) DMSO); 1200 ± 400 µM in series [3]; 1100 ± 200 µM in series [4] (universal buffer); 900 ± 300 µM in the series “purified protein”. For the same protein, in the series “purified protein”, the kcat came to 8.1 ± 0.8 s⁻¹.

B2: small laccase (SLAC), SCO6712 (Streptomyces coelicolor A3(2); S292A) (protein)
chain: B1 chain with S259A
In the case of B2, the Km in series [1] came to 2400 ± 200 µM; in series [2] (DMSO), 1600 ± 400 µM; in series [4] it was 120 ± 20 µM. Besides, the kcat in series [1] is 11.1 ± 0.3 s⁻¹; in series [2] (DMSO), 4.0 ± 0.4 s⁻¹; in series [4], 0.93 ± 0.02 s⁻¹.
